According to US20260265340A1 (CUROGEN TECHNOLOGY, published 2026):

Molecular target: T1, human TNFα (human, UniProt P01375 77-233)
T1 construct: also called hTNFα
Assay: ELISA, cytokine coated on the plate; the text value differs from the table cell 43.8
Protocol: The wells were then blocked with ELISA TBS buffer containing 5% BSA at 100 μl/well and incubated at room temperature for 1 hour, followed by three washes with ELISA TBS buffer (200 μl/well). […] After three washes with ELISA TBS buffer (200 μl/well), HRP-conjugated secondary antibody (Abcam, Cat. Ab98624) was applied and incubated at room temperature for 1 hour.

T1 sequence (P01375 77-233 limits assumed): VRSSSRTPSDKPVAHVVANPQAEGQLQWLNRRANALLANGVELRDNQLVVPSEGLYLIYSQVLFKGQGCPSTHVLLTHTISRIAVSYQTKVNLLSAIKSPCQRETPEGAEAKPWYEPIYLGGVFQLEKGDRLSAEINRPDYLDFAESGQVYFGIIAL

EC50: 0.0431 µg/mL
B1: IL-17RA/RC-Fc-TNFR2 fusion protein T1-T4-14 (Fc fusion)
chain: LRLLDHRAPVCSQPGLNCTVKNSDCLDDSWIHPRNLTPSSPKDLQIQLHFAHTQQGDLVPVAHIEWTLQTDASILYLEGAELSVLQLDTNERLCVRFEFLSKLRHHHRRWRFTFSHFVVDPGQEYEVTVHHLPKPIPDGDPNHQSKNFLVPDCEHPRMKVTTPCMSSALPWLNVSADGDNVHLVLNVSEEQHFGLSLYWNQVQGPPKPRWHKNLTGPQIITLNHTDLVPCLCIQVWPLEPDSVRTNICPFREDPRAHQNLWQAARLRLLTLQSWLLDAPCSLPAEAALCWRAPGGDPCQPLVPPLSWENVTVDKVLEFPLLKGHPNLCVQVNSSEKLQLQECLWADSLGPLKDDVLLLETRGPQDNRSLCALEPSGCTSLPSKASTRAARLGEYLLQDLQSGQCLQLWDDDLGALWACPMDKYIHKTGIEGRMDRNTGRGGEEKKKEKEKEEQEERETKTPECPSHTQPLGVFLFPPKPKDTLMISRTPEVTCVVVDVSQEDPEVQFNWYVDGVEVHNAKTKPREEQFNSTYRVVSVLTVLHQDWLNGKEYKCKVSNKGLPSSIEKTISKAKGQPREPQVYTLPPSQEEMTKNQVSLTCLVKGFYPSDIAVEWESNGQPENNYKTTPPVLDSDGSFFLYSRLTVDKSRWQEGNVFSCSVMHEALHNHYTQKSLSLSLGKGGGGSGGGGSGGGGSLELPAQVAFTPYAPEPGSTCRLREYYDQTAQMCCAKCPPGQHAKVFCTKTSDTVCDSCEDSTYTQLWNWVPECLSCSSRCSSDQVETQACTREQNRICTCRPGWYCALSKQEGCRLCAPLSKCRPGFGVARPGTETSDVVCKPCAPGTFSNTTSSTDICRPHQICSVVAIPGNASMDAVCTSTSPTRSMAPGAVHLPQPVSTRSQHTQPTPGPSTAPSTSILLPMGPSPPAEGSTGD
notes: Structure T1c-Fc-T4g; also called T1c-Fc-T4g; IL-17RA/RC-Fc-TNFR2 (T1-T4-14)
